Source: article PMC5056641

Target: SRSF1 (ASF/SF2), unphosphorylated (human, UniProt Q07955 1-248)
Experiment: filter binding

SRSF1 (ASF/SF2), unphosphorylated, sequence (Q07955 whole entry): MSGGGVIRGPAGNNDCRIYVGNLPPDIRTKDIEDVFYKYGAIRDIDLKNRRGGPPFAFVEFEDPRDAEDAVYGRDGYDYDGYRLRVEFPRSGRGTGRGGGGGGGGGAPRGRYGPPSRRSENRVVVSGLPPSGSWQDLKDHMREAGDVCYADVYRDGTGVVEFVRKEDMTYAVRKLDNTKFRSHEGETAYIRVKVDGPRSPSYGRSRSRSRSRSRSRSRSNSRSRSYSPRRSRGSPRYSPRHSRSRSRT

AGGCGGAGGAAGC (ssRNA) [Ron ESE 13mer]
apparent K (half saturation): 66 ± 2 nM
